In paper PMC10474468:

Assays:
[1] = target: Trichomonas vaginalis riboside hydrolase (TvRH), His6 tag removed (Trichomonas vaginalis) (UniProt A2FTT0); experiment: SEC
[2] = substrate: O=[N+]([O-])c1ccc(O[C@@H]2O[C@H](CO)[C@@H](O)[C@H]2O)cc1; experiment: purified protein; conditions: Ca2+
[3] = substrate: NC(=O)c1ccc[n+]([C@@H]2O[C@H](CO)[C@@H](O)[C@H]2O)c1; experiment: purified protein; conditions: Ca2+ active site (modeled only); pH 6.5; 37.0 °C
[4] = substrate: O=c1ccn([C@@H]2O[C@H](CO)[C@@H](O)[C@H]2O)c(=O)[nH]1; experiment: purified protein; conditions: Ca2+ active site (modeled only)
[5] = substrate: O=c1[nH]c(=O)n([C@@H]2O[C@H](CO)[C@@H](O)[C@H]2O)cc1Br; experiment: purified protein; conditions: Ca2+
[6] = substrate: O=c1[nH]c(=O)n([C@@H]2O[C@H](CO)[C@@H](O)[C@H]2O)cc1F; experiment: purified protein; conditions: Ca2+
[7] = substrate: O=c1[nH]c(=O)n([C@@H]2O[C@H](CO)[C@@H](O)[C@H]2O)cc1Cl; experiment: purified protein; conditions: Ca2+
[8] = substrate: Nc1ccn([C@@H]2O[C@H](CO)[C@@H](O)[C@H]2O)c(=O)n1; experiment: purified protein; conditions: Ca2+

Trichomonas vaginalis riboside hydrolase (TvRH), His6 tag removed (from UniProt A2FTT0 1-347) (enzyme)
stoichiometry N [1]: 4

B1: TvRH (riboside hydrolase, TVAG_092730) (Trichomonas vaginalis G3) (protein)
chain: MSIKCALDCDPGHDDLAMIMLAVYSPKLDVQYISTTHGNQTVNKTYQNARRTLNLIKRADKIPVYRGYSKPLTRESVACPEIHGESGLGGVDWSEIDRTMPRNPALDILGYKDESELRPDDFFKHLHRLVSAAEDKFDIISTGSETNIAQYLLAYPEDAKKIRMTTMAGNFMIVGNIMPFAEFNVLIDPEAISNILQSGVDYTFAAPLDITHTVLVTEKVINDIKAATEPYSPKFTEMIIKLLFFFKDTYRDVFGFIDPPLHDPVAAFHLIAPEWFEHVRCHVDIETKGEYTYGCCCTNLILKKKDPTKIVKPDNATVCLKLKEGGHDAFWNQMITVWGEIAKEIGK
Km [2]: 13 µM | kcat [2]: 391 ± 2 s⁻¹ | kcat/Km [2]: 3e+07 M⁻¹ s⁻¹ | Km [3]: 99.1 µM | kcat [3]: 10.9 ± 0.24 s⁻¹ | kcat/Km [3]: 110000 M⁻¹ s⁻¹ | Km [4]: 39 µM | kcat [4]: 9.3 ± 0.27 s⁻¹ | kcat/Km [4]: 240000 M⁻¹ s⁻¹ | Km [5]: 20 µM | kcat [5]: 2.1 ± 0.1 s⁻¹ | kcat/Km [5]: 100000 M⁻¹ s⁻¹ | Km [6]: 17 µM | kcat [6]: 12.6 ± 0.6 s⁻¹ | kcat/Km [6]: 770000 M⁻¹ s⁻¹ | Km [7]: 11 µM | kcat [7]: 2.3 ± 0.1 s⁻¹ | kcat/Km [7]: 210000 M⁻¹ s⁻¹ | Km [8]: 33 µM | kcat [8]: 0.19 ± 0.003 s⁻¹ | kcat/Km [8]: 5700 M⁻¹ s⁻¹
